Results as given in patent US20140350088.

How the values were obtained:
[1] = target: biotinylated human glucagon (Homo sapiens) (UniProt P01275); assay: SPR; settings: 37 C, HBS-EP pH 7.4
[2] = target: T1, human alpha-CGRP (Homo sapiens) (UniProt P06881); assay: SPR; settings: L-RNA, 37 C
T1 sequence: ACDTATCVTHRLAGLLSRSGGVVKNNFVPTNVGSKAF

[3] = target: biotinylated human glucagon (Homo sapiens) (UniProt P01275); assay: competition; settings: L-DNA; competitive pull-down, 37 C, 1 mM Mg, 1 mM Ca
[4] = target: T2, human C5a (Homo sapiens) (UniProt P01031); assay: SPR; settings: L-RNA; 37 C, HBS-EP pH 7.4
T2 sequence: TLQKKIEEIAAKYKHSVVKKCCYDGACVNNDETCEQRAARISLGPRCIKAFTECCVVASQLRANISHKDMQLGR

Sequence of biotinylated human glucagon (Homo sapiens) (P01275 53-81): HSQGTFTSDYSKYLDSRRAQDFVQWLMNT

## ACTCGAGAGGAAAGGTTGGTAAAGGTTCGGTTGGATTCACTCGAGT [259-H6-002]
[1]; L-DNA
  Kd: 10.9 nM

## CAGACGUGUGUGGGUAGAUGCACCUGCGAUUCGCUAAAAAGUGCCACACGUCUG [NOX-G11stabi2]
[1]; L-RNA
  Kd: 67.1 nM

## CCGUGCUGUCGGAGACUACUCGUCGAGUAGAAAUAGGUCCCCUCCCACGG [226-F2-001-D41/D44]
[2]; dC at 41 and 44, 13-fold improvement over parent
  Kd: 0.2 nM

## CCGUGCUGUCGGAGACUACUCGUCGAGUAGAAAUAGGUCCCCUCCCACGG [226-F2-001-D41]
[2]; dC at 41, HBS-EP pH 7.4
  Kd: 0.55 nM

## CCGUGCUGUCGGAGACUACUCGUCGAGUAGAAAUAGGUCCCCUCCCACGG [226-F2-001-D44]
[2]; dC at 44, HBS-EP pH 7.4
  Kd: 0.52 nM

## CCGUGCUGUCGGAGACUACUCGUCGAGUAGAAAUAGGUCCCCUCCCACGG [226-F2-001]
[2]; HBS-EP pH 7.4
  Kd: 2.6 nM

## GCAGTGGGGAAATGGGAGGGCTAGGTGGAAGGAATCTGAGCTACTGC [257-E1-001]
[3]
  Kd: 186 nM

## GCCUGAUGUGGUGGUGAAGGGUUGUUGGGUGUCGACGCACAGGC [NOX-D19001]
[4]
  Kd: 1.4 nM
